These results are taken from US6955900B1, “Methods for producing polypeptide binding sites, monoclonal antibodies and compositions thereof” (The Scripps Research Institute, priority 1993, dated 2005).

The target in test [1] is T1, αIIbβ3 (Homo sapiens, UniProt P05106+P08514). Particulars: solid-phase radioligand binding assays, recently reported; cited from earlier work.
Test [2] has as its target T1, αIIbβ3. The test can be described thus: surface plasmon resonance (BIAcore), Fab binding to immobilized αIIbβ3. Also noted: from tissue; the procedure itself is in U.S. Pat. No. 5,114,842. Particulars: using SPR. How it is done: A comparison of absolute antibody affinities was then performed with surface plasmon resonance, which is a highly accurate means of assessing ligand affinities in real time. See, Altshuh et al., Biochem., 31:6298-6304 (1992); Chaiken et al., Anal. Biochem., 201:197-210 (1992); Eddowes, Biosensors, 3:1-15 (1987); Fagerstam et al., J. Chromatoar., 597:397-410 (1992); Johnsson et al., Anal. Biochem., 198:268-277 (1991); Karlsson et al., J. Immunol. Methods, 145:229-240 (1991); and VanCott et al., J. Immunol. Methods, 146:163-176 (1992), the disclosures of which are hereby incorporated by reference. SPR is a phenomena that occurs when incoming photons interact with electrons in a biosensor chip. […]
The association and dissociation rate constants (k1 and k−1) for semi-synthetic antibodies were obtained from BIAcore measurements as follows. […] At the end of the association phase the flow was changed to buffer without ligand and the change in response unit (RU) was measured as a function of time. […]
To obtain the association rate constant k1, an antibody was passed through the sensor chip containing unoccupied integrin and the response unit as a result of binding is again measured as a function of time. The association rate constant, k1, is calculated as shown in equation 2. k1=[((dRU/dt)/RU)−k−1]/L Equation 2 L is the concentration of ligand. […]

In test [3] the target is T2, αvβ3 (Homo sapiens, UniProt P05106+P06756).
T2 construct: human placentas were obtained, cut into small pieces and extracted; from tissue
Briefly: purified ligand-receptor binding assay, inhibition of 125I-vitronectin binding to αvβ3. The conditions noted are these: for blocking of vitronectin (ligand) binding to αvβ3: result in words. How it is done:
(§1) The method for these binding studies has been described by Barbas et al., Proc. Natl. Acad. Sci., USA, 90:10003-10007 (1993) and Smith et al., J. Biol. Chem., 265:11008-11013 (1990), the disclosures of which are hereby incorporated by reference.
(§2) Briefly, selected purified integrins were separately immobilized in Titertek microtiter wells at a coating concentration of 50 ng per well. After incubation for 18 hr at 4° C., non-specific binding sites on the plate were blocked with 10 mg/ml of bovine serum albumin in Tris-buffered saline. For inhibition studies, a range of antibody was tested for the ability to block the binding of ^125I-vitronectin to αvβ3 and ^125I-fibrinogen to αIIbβ3. The choice to use two different ligands in comparing the inhibitory activity of antibodies was a compromise based on a complicated series of circumstances. […] In contrast, Ca^2+ is essential for the rapid binding of fibrinogen to αIIbβ3. […] Therefore, the optimal ligand was selected for each integrin. This corresponds to vitronectin for αvβ3 and fibrinogen for αIIbβ3. Radiolabeled ligands were used at concentrations of 1 nM and binding was challenged with unlabeled antibody.
(§3) Following a three hour incubation free ligand was removed by washing and bound ligand was detected by gamma counting. The data from this analysis were highly reproducible with the error between data points typically below 11%. Data are expressed as the average of triplicate data points. All experiments were repeated at least four times.

For test [4], the target named is T3, αvβ5 (Homo sapiens, UniProt P06756+P18084).
T3 construct: human placentas were obtained, cut into small pieces and extracted; from tissue
The test can be described thus: purified ligand-receptor binding assay, inhibition of 125I-vitronectin binding to αvβ5. Particulars: result in words. The protocol: To determine if the CDR was an appropriate vehicle for displaying and identifying inhibitory peptide motifs, the ability of synthetic peptides derived from the sequence of Fab 9 to block ligand binding to αvβ3, αvβ5 and αIIbβ3 was measured. One peptide synthesized as described below for use in this assay contained a RGD motif positioned on the apex of the CDR3 loop but lacked the remaining flanking regions of the CDR3 and rest of the heavy chain. The sequence of the peptide is listed in SEQ ID NO 12. A peptide having the same sequence but flanked by glycine residues to prevent cyclization was also prepared and has the amino acid residue sequence in SEQ ID NO 68. A longer peptide, having the amino acid residue sequence in SEQ ID NO 4 containing all of the amino acids in SEQ ID NO 12 along with flanking amino acid residues, was also prepared. These assays were performed in order to assess the ability of this particular peptide to inhibit the binding of a high affinity ligand to a receptor, namely the binding of vitronectin to αv/β3 or αv/β5 and fibrinogen to gpIIb/IIIa.
The synthetic peptides from Fab 9 were tested for the ability to antagonize αvβ3 and αIIbβ3 and αvβ5 in purified ligand-receptor binding assays performed as described in Example 5b. […]

The target of test [5] is T1, αIIbβ3. Briefly: purified ligand-receptor binding assay, inhibition of 125I-fibrinogen binding to αIIbβ3. Particulars: for blocking of fibrinogen (ligand) binding to gpIIb/IIIa (αIIbβ3): result in words. Also noted: from tissue; the procedure itself is in U.S. Pat. No. 5,114,842. How it is done:
as §1, §2, §3

For test [6], the target named is T2, αvβ3. The test can be described thus: ELISA on αv/β3-coated wells. The class given is binding. Particulars: result in words, compared to BSA background. How it is done:
(§4) Preliminary ELISA assays were performed to first characterize the binding specificity of the panned phage monoclonal antibodies prepared above toward related integrins. For ELISA, 1 ug/well of the purified VNRs prepared in Example 3A was separately admixed to individual wells of a microtiter plate and maintained at 4 C overnight to allow the protein solution to adhere to the walls of the well. After the maintenance period, the wells were washed once with PBS and thereafter maintained with a solution of 3% BSA to block nonspecific sites on the wells. The plates were maintained at 37 C for 1 hour after which time the plates were inverted and shaked to remove the BSA solution. Soluble Fab heterodimers expressing the synthetic binding site proteins-prepared in Example 3B were then admixed separately to each well and maintained at 37 C for 1 hour to form a immunoreaction products. Following the maintenance period, the wells were washed 10 times with PBS to remove unbound soluble antibody and then maintained with a secondary goat anti-human FAB conjugated to alkaline phosphatase diluted in PBS containing 1% BSA. The wells were maintained at 37 C for 1 hour after which the wells were washed 10 times with PBS followed by development with p-nitrophenyl phosphate.

The target in test [7] is T3, αvβ5. Briefly: ELISA on αv/β5-coated wells. The conditions noted are these: result in words, compared to BSA background. The class given is binding. The protocol: as §4
Test [8] deals with T4, gpIIb/IIIa (Homo sapiens, UniProt P05106+P08514).
T4 construct: from tissue; the procedure itself is in U.S. Pat. No. 5,114,842
The test can be described thus: ELISA on gpIIb/IIIa-coated surfaces. The conditions noted are these: result in words. The class given is binding.

Test [9] deals with platelets. Briefly: platelet aggregation assay. It counts as cell-based, human. How it is done:
Platelet aggregation assays were performed as described in U.S. Pat. No. 5,114,842. […] When the concentration of the RGDC2-binding site Fab was decreased by half, the amount of platelet aggregation increased similarly and thus the amount of light transmitted increased. […] All of the initial selection and characterization of the semi-synthetic Fab antibodies of this invention relied largely upon the use of purified integrins. Since the MTF-antibodies blocked the function of αIIbβ3 and have potential therapeutic use in the prevention of thrombosis, the ability of recombinant Fabs to block platelet aggregation was measured as described in Example 4. Washed platelets (1×10^8) were placed in Tyrode's buffer containing 2 mM Ca^2+ and 100 ug/ml of fibrinogen and aggregation was stimulated by addition of 20 uM ADP. Aggregation was measured as light transmission through the platelet suspension using a Scienceo aggregometer.

For test [10], the target named is T4, gpIIb/IIIa. The test can be described thus: gpIIb/IIIa sandwich ELISA on fibrinogen-coated plates. It counts as binding. The protocol: A gpIIb/IIIa sandwich ELISA assay was performed on 10 ug/ml (100 ul) of fibrinogen-coated plates. After blocking the plate as described above, the RGD-expressing, Fab, Mab 19, was admixed with purified gpIIb/IIIa receptor. After allowing the RGD-expressing Fab and receptor admixture to immunoreact with the fibrinogen, the wells were washed and the amount of bound gpIIb/IIIa was determined using an anti-IIIa antibody.

Where [11] appears, read: listed as Fab 9-derived peptide in SEQ ID NO 68.

Where two headings read alike, the source gives them in different places. Bridge positions count the residues as written; N and C are the ends. Ends that are not written are not given here.

T2 sequence (P06756 31-889 limits assumed): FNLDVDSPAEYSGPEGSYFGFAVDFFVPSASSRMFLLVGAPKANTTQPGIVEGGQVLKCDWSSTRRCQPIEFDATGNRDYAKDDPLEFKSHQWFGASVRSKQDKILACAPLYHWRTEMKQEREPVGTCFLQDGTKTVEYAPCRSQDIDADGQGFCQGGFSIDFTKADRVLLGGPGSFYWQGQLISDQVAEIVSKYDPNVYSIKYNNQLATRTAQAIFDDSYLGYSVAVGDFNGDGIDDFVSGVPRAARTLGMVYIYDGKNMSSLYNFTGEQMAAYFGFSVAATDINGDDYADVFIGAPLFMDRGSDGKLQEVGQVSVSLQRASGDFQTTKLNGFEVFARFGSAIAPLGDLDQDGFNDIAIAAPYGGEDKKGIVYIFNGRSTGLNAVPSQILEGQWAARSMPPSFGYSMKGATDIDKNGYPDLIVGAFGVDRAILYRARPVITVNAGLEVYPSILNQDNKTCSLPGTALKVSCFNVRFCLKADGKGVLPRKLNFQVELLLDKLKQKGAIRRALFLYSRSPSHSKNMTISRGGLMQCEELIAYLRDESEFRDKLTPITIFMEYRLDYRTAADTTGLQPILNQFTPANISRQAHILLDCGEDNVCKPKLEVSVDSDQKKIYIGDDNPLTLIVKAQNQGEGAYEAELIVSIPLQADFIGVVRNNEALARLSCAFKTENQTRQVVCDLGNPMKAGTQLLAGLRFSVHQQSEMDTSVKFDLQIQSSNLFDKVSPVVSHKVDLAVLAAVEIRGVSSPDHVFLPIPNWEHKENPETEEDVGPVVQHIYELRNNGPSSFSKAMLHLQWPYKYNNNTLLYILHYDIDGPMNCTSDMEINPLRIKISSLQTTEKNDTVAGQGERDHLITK
T2 sequence (P06756 891-1048 partner limits assumed): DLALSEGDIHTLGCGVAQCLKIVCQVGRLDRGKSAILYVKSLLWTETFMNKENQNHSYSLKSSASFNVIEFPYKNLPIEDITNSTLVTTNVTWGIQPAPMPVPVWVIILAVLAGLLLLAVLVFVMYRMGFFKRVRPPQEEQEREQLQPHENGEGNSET
T2 sequence (P05106 27-788): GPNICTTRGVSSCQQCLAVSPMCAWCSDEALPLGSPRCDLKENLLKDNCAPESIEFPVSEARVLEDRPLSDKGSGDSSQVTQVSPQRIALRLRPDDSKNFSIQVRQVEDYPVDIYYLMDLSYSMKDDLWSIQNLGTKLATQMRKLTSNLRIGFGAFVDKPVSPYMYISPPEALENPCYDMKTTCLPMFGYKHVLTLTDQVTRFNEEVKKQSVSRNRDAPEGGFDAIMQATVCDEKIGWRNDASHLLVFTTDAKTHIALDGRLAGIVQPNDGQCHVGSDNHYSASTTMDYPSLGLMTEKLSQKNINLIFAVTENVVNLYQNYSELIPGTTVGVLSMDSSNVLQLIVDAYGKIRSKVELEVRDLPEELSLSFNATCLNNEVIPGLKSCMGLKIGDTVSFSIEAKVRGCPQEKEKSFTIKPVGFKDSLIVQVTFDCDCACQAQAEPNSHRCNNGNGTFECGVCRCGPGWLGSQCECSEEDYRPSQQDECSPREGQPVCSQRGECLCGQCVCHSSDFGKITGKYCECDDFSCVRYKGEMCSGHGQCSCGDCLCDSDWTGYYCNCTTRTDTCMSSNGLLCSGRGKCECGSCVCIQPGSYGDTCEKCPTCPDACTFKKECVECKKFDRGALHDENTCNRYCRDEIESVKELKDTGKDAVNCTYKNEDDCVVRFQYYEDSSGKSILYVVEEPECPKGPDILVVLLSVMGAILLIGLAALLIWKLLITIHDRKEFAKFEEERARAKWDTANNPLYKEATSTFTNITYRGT
T3 sequence (P06756 31-889 limits assumed): as the sequence (P06756 31-889 limits assumed) above
T3 sequence (P06756 891-1048 partner limits assumed): as the sequence (P06756 891-1048 partner limits assumed) above
T3 sequence (P18084 24-799): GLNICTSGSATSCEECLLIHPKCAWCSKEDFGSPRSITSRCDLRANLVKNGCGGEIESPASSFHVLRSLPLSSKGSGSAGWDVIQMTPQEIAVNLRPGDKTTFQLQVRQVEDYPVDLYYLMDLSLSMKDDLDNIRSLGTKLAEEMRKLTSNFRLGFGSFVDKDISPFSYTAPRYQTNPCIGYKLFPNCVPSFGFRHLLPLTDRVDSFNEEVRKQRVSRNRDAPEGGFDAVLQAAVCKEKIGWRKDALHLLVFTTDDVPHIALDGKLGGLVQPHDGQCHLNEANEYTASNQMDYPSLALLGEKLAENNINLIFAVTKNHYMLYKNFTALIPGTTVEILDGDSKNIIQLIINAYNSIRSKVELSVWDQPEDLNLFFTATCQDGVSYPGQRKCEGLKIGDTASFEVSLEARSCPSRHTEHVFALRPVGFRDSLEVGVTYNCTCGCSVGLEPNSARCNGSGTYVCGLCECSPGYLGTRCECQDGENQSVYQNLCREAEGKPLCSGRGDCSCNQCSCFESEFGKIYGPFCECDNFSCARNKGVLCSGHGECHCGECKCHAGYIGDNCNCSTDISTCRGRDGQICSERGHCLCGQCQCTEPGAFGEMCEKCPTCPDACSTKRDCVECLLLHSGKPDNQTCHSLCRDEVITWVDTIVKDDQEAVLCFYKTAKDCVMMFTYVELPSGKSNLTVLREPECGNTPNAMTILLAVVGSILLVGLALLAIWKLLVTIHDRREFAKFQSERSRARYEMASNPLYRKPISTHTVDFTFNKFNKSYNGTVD

Take “fibrinogen: natural high affinity ligand of αIIbβ3”: the “association rate constant for binding to αIIbβ3” value in test [1] was 850000 M⁻¹ s⁻¹; in test [2], 600000 M⁻¹ s⁻¹.

For the substance GSFGRGDIRNG [Lin-9], in [3], the “peptide concentration reaching maximal inhibition of binding to αv/β3” value was 10^−5 M. Also, the “blocking of vitronectin (ligand) binding to αvβ3” value (from here on “blocking of vitronectin … to αvβ3”) in [3] is “inhibited”; in test [3] (setting [11]), “completely inhibited”. The entries for the “blocking of vitronectin binding to αvβ5” value in [4] and in test [4] (setting [11]) were “did not antagonize” and “No inhibition”, respectively. Moreover, in [5], the “peptide concentration reaching maximal inhibition of binding to gpIIb/IIIa” value is recorded as 10^−5 M. Moreover, the “blocking of fibrinogen (ligand) binding to gpIIb/IIIa (αIIbβ3)” value (“blocking … to gpIIb/IIIa (αIIbβ3)” below) in test [5] is listed as “inhibited”; in [5] (setting [11]) it was “completely inhibited”.

Regarding “CSFGRGDIRNC (CSFGRGDIRNC-NH2; disulfide 1-11 (inferred); not fully specified) [circularized Fab 9-derived peptide]”, in test [3] (listed as VnRB3-5-derived peptide), the “blocking of vitronectin … to αvβ3” value is “inhibits”.

For “Mab 19: Fab-displayed RGDC2 binding site VGCGRLRGDDPWCYYMDV (SEQ ID NO 3) (Fab-displayed binding site)”, the “binding to αv/β3 (ELISA, immunoreaction)” value in [6] was “not cross-react”. The “binding to αv/β5 (ELISA, immunoreaction)” value in test [7] is given as “not cross-react”. Moreover, the “binding to gpIIb/IIIa (ELISA, immunoreaction)” value in test [8] is listed as “specific for gpIIb/IIIa”. In [9] (6.6 uM purified soluble Fab, light transmission), the “inhibition of platelet aggregation” value was “inhibited the aggregation of platelets in a time-dependent manner”. The “inhibition of platelet aggregation compared with murine Fab LIBS-1” value in [9] (simultaneously performed assays) is “equally effective”. Further, in test [10], the “Fab concentration of maximal inhibition of gpIIb/IIIa binding to fibrinogen” value came out at 5 µM. Besides, in test [10] (result in words), the “blocking of gpIIb/IIIa binding to fibrinogen” value was “blocked the binding of gpIIb/IIIa to fibrinogen in a dose-dependent manner”.

For “Mab 8: Fab-displayed RGDC2 binding site VGCPIPRGDWRECYYMDV (SEQ ID NO 8) (Fab-displayed binding site)”, the “binding to αv/β3 (ELISA, immunoreaction)” value in test [6] is given as “bound specifically”. Also, the “binding to αv/β5 (ELISA, immunoreaction)” value in [7] is “not to αv/β5”.

Take “peptides derived from HCDR3 of MTF-40: circular CSFGRNDSRNC (SEQ ID NO 69), linear GCSFGRNDSRNCY (SEQ ID NO 70) [peptide 40]”: the “blocking of vitronectin … to αvβ3” value in test [3] was “did not interfere”. Further, the “blocking … to gpIIb/IIIa (αIIbβ3)” value in test [5] is given as “blocked”.

Turning to “peptides derived from HCDR3 of MTF-32: circular CSFGRTDQRNC (SEQ ID NO 71), linear GCSFGRTDQRNCY (SEQ ID NO 72) [peptide 32]”, the “blocking of vitronectin … to αvβ3” value in [3] is on record as “did not interfere”. Also, the “blocking … to gpIIb/IIIa (αIIbβ3)” value in test [5] is on record as “blocked”.
